From US20260015420A1 (CENTESSA PHARMACEUTICALS UK, published 2026)

How the values were obtained:
human CD47-Fc [1] = biological target: T1, human CD47-Fc (human, UniProt Q08722 19-139); test: competition ELISA: human CD47-Fc binding to plate-bound human SIRPa-Fc, % binding
T1 construct: also called hCD47; human CD47-Fc protein; not shown: Fc part

[2] = biological target: T2, human CD47 on cells (human CD47-transfected CHO-K1 cells; HL60; Jurkat) (human, UniProt Q08722 19-323); test: flow cytometry, human CD47-transfected CHO-K1 cells, 100-0.024 µg/ml
T2 construct: CHO-K1 cells stably transfected with human CD47 full-length cDNA; also endogenous CD47 of the human AML line HL60 and of Jurkat cells; also called human CD47+ cells; human CD47+CHO-K1

[3] = biological target: T3, cynomolgus monkey CD47-Fc (cynomolgus monkey, UniProt Q08722 19-139 (human entry), limits assumed); test: HTRF competition with labelled h5F9G4 IgG1 (m11) for cyno CD47-Fc, normalised 665/615 ratio
T3 construct: also called cCD47; cyno CD47-Fc; not shown: Fc part
T3 chain: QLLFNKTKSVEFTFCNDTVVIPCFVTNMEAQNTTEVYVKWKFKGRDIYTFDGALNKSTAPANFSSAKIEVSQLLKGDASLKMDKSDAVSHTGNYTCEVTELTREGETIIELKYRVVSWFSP

[4] = biological target: T3, cynomolgus monkey CD47-Fc; test: competition ELISA: cyno CD47-Fc binding to plate-bound human SIRPa-Fc, % binding
[5] = biological target: T4, cynomolgus monkey CD47 on cyno CD47-transfected CHO-K1 cells (cynomolgus monkey, UniProt Q08722 19-323 (human entry)); test: flow cytometry, cyno CD47-transfected CHO-K1 cells, 100-0.024 µg/ml
T4 construct: CHO-K1 cells stably transfected with cyno CD47 full-length cDNA; also called cyno CD47+ cells; cyno CD47+CHO-K1
T4 chain: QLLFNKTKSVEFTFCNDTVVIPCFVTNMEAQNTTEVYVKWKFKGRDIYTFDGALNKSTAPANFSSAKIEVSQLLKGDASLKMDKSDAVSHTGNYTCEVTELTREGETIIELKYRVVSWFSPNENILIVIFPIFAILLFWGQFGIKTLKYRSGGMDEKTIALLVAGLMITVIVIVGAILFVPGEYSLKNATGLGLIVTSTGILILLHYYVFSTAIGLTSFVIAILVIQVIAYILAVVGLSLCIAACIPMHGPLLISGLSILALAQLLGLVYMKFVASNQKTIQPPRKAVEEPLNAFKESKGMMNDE

human CD47-Fc [6] = biological target: T1, human CD47-Fc; test: direct ELISA, coated human CD47-Fc, OD450 [D00009 FIG. 6C; D00010 FIG. 6E; D00011 FIG. 6G]
[7] = biological target: T3, cynomolgus monkey CD47-Fc; test: HTRF epitope competition; competitor Tb-labelled h5F9G4 IgG1 on biotinylated cyno CD47-Fc
human CD47-Fc [8] = biological target: T1, human CD47-Fc; test: HTRF competition with labelled h5F9G4 IgG1 (m11) for human CD47-Fc, normalised 665/615 ratio
[9] = biological target: T3, cynomolgus monkey CD47-Fc; test: direct ELISA, coated cyno CD47-Fc, OD450 [D00009 FIG. 6D; D00010 FIG. 6F; D00011 FIG. 6H]
[10] = biological target: T3, cynomolgus monkey CD47-Fc; test: competition ELISA: cyno CD47-Fc binding to plate-bound human SIRPa-Fc, OD450
human CD47-Fc [11] = biological target: T1, human CD47-Fc; test: HTRF epitope competition; competitor Tb-labelled h5F9G4 IgG1 on biotinylated human CD47-Fc
human CD47-Fc [12] = biological target: T1, human CD47-Fc; test: competition ELISA: human CD47-Fc binding to plate-bound human SIRPa-Fc, OD450
human CD47-Fc [13] = biological target: T1, human CD47-Fc; test: direct ELISA, coated human CD47-Fc, OD450
human CD47-Fc [14] = biological target: T1, human CD47-Fc; test: HTRF competition with labelled h5F9G4 IgG1 (m11) for human CD47-Fc, 665/615 ratio
human CD47-Fc [15] = biological target: T1, human CD47-Fc; test: as above; remark: listed apart in the source

B1: chimeric anti-CD47 m5F9G4, human IgG1null (antibody, V domains shown)
VH: QVQLQQPGAELVKPGASVMMSCKASGYTFTNYNMHWVKQTPGQGLEWIGTIYPGNDDTSYNQKFKDKATLTADKSSSAAYMQLSSLTSEDSAVYYCARGGYRAMDYWGQGTSVTVSS
VL: DVLMTQTPLSLPVSLGDQASISCRSSQSIVYSNGNTYLGWYLQKPGQSPKLLIYKVSNRFSGVPDRFSGSGSGTDFTLKISRVEAEDLGVYHCFQGSHVPYTFGGGTKVEIK
notes: Murine v-domains on human IgG1null (IgG1 with L234A/L235A/G237A), kappa; also called m5F9G4 IgG1; m59G4
Human CD47-Fc [1]
  IC50 (read off the curve): ~0.3 µg/mL
[2]
  maximum MFI over background on untransfected CHO-K1 (fold): > 50 fold
[3]
  IC50 (read off the curve): ~0.1 µg/mL
[4]
  IC50 (read off the curve): ~0.2 µg/mL
[5]
  maximum MFI over background on untransfected CHO-K1 (fold): > 50 fold
Human CD47-Fc [6]
  EC50 (read off the curve): ~0.07 µg/mL
[7]
  IC50: 0.809 µg/mL
Human CD47-Fc [8]
  IC50 (read off the curve): ~0.3 µg/mL
[9]
  EC50 (read off the curve): ~0.06 µg/mL
[10]
  IC50 (read off the curve): ~3 nM
Human CD47-Fc [11]
  IC50: 0.601 µg/mL
Human CD47-Fc [12]
  IC50 (read off the curve): ~1 nM
Human CD47-Fc [13]
  EC50 (read off the curve): ~0.04 µg/mL
Human CD47-Fc [14]
  IC50 (read off the curve): ~0.05 µg/mL
Human CD47-Fc [15]
  IC50 (read off the curve): ~0.05 µg/mL
